From paper doi:10.1101/2020.01.07.896506 (bioRxiv, 2020)
Where a chain is given by its changes, count along the chain named. Numbers in names are those of the source.

Key:
[1] = target: the molecule itself; test: native gel or EMSA
[2] = target: the molecule itself; test: SEC

B1: recombinant GRXS17 (glutaredoxin GRXS17, Arabidopsis thaliana) (natural protein, UniProt Q9ZPH2 1-488, looked up)
chain: MSGTVKDIVSKAELDNLRQSGAPVVLHFWASWCDASKQMDQVFSHLATDFPRAHFFRVEAEEHPEISEAYSVAAVPYFVFFKDGKTVDTLEGADPSSLANKVGKVAGSSTSAEPAAPASLGLAAGPTILETVKENAKASLQDRAQPVSTADALKSRLEKLTNSHPVMLFMKGIPEEPRCGFSRKVVDILKEVNVDFGSFDILSDNEVREGLKKFSNWPTFPQLYCNGELLGGADIAIAMHESGELKDAFKDLGITTVGSKESQDEAGKGGGVSSGNTGLSETLRARLEGLVNSKPVMLFMKGRPEEPKCGFSGKVVEILNQEKIEFGSFDILLDDEVRQGLKVYSNWSSYPQLYVKGELMGGSDIVLEMQKSGELKKVLTEKGITGEQSLEDRLKALINSSEVMLFMKGSPDEPKCGFSSKVVKALRGENVSFGSFDILTDEEVRQGIKNFSNWPTFPQLYYKGELIGGCDIIMELSESGDLKATLSE
[1]
  stoichiometry N: 2

B2: recombinant GRXS17-C33S (natural protein, Arabidopsis thaliana, UniProt Q9ZPH2 1-488, looked up)
chain: B1 chain with C33S
[2]
  binding result: binds

B3: recombinant GRXS17-C33S/C179S/C309S/C416S (natural protein, Arabidopsis thaliana, UniProt Q9ZPH2 1-488, looked up)
chain: B1 chain with C33S, C179S, C309S, C416S
[2]
  stoichiometry N: 2
